Test: soluble on expression in E. coli; label from the status in PepcDB or PDB records

Sequence	soluble on expression in E. coli
MGSDKIHHHHHHMLSVPPDKSITHRALILSALAETESTLYNLLRCLDTERTHDILEKLGTRFEGDWEKMKVFPKPFAEPIEPLFCGNSGTTTRLMSGVLASYEMFTVLYGDPSLSRRPMRRVIEPLEMMGARFMARQNNYLPMAIKGNHLSGISYKTPVASAQVKSAVLLAGLRASGRTIVIEPAKSRDHTERMLKNLGVPVEVEGTRVVLEPATFRGFTMKVPGDISSAAFFVVLGAIHPNARITVTDVGLNPTRTGLLEVMKLMGANLEWEITEENLEPIGTVRVETSPNLKGVVVPEHLVPLMIDELPLVALLGVFAEGETVVRNAEELRKKESDRIRVLVENFKRLGVEIEEFKDGFKIVGKQSIKGGSVDPEGDHRMAMLFSIAGLVSEEGVDVKDHECVAVSFPNFYELLERVVIS	not soluble
MGSDKIHHHHHHMNVAILLAAGKGERMSENVPKQFLEIEGRMLFEYPLSTFLKSEAIDGVVIVTRREWFEVVEKRVFHEKVLGIVEGGDTRSQSVRSALEFLEKFSPSYVLVHDSARPFLRKKHVSEVLRRARETGAATLALKNSDALVRVENDRIEYIPRKGVYRILTPQAFSYEILKKAHENGGEWADDTEPVQKLGVKIALVEGDPLCFKVTFKEDLELARIIAREWERIP	soluble
MAHHHHHHMDVKLGTIISRFTFTLPSLYDDGRDDYDATVSSPDDAATEESCGVAFTSGTHCDEARKTPKTTQAGSRSHVARFGAPASPTEKLDITGAYAFVSHGGAASSASLAAPSSPPPLLGRAAARGDRNNSTVAAPQHDVGDRGGGAVRYGTSLHLPDLVQLAAHAWNVELHCGSTGAASHCVLRLPPFVLGSTLYRGPVVYVLASGVVRMATHGSVAATELLARRVRDALHEACKPLAVRRAAREELLLMRAVLEDSLSDMLEDEGGEEGPARHLCTAVLKAEARLPSSGVSLSTALAADTAMSSQHGRRAAFGSSAAAARIGPMARDKAGHGLPTLVSTPSVLSARGCKIDFLQAVATPRWDEIVGLRASLFAPASAAPGSENSGGGGVAKADRDAEGAPRVSVRRASVNVRGDAPMEWWRWYLGVQADDHGVGGGDGSGAARRGGGAPSAAAANSEEPFPGDCSGVPLLGSWLSGDASEGGNADARSSNKTTGFWTCAGYADASPENAASFVHFLQRRRALLAHHVASFKLRRQATQNSLQILLDWRTATPPTPPAPPAPLSAAAAPLMGRPPLARALVGHPMAVAQPLPDSGTPSVPAAPTRTNISGNTWVTEASAANFFMESTFIAESAAPFELESVRMPTDRMSSADPALPVSMALGDRNVANPCGSTALAPDSGCGSMSALLEPSVGHSVLRYDSSSSKDDRTAAKAAPEKRMRGVAAAQASAANRDEAASAAMEHVTCLIHRTGRVQMTAASELALRQMCAMLLIPFLVATAEVEL	not soluble
MSLRKFWHVGINVTDMDKSIDFYRRIGFEVVQDREVEDSNLARAFMVEGASKLRFAHLRLNDSPDEAMLDLIEWRDARSEGRAQSDLVHPGLCRFSILTDDIDAEYARLADDGVQFLHAPQTIMGPDGVKGWRLLFARDPDGTLFHFAELVGQAATEGHHHHHH	not soluble
MGSDKIHHHHHHMARNAKLDRLLTLVKALGESAEGLTLDEMAEVIGANRRTAERLRDLILVHFDLEEGVDDRHKRFRIPGTLPSPFIQPNVAEIAALKSLADTAHKAGSAQAPLLESLVGKVQAGLRREVKSRMAPDLEPLVRLQRHHVPAGPMIEHAPETVAQVQGAMMAGMCLEFDYLADGAAEPKWRRVIPVGLIHGPATYLIGKIPGRDLEPAPYRLDRIIAARVSNQPGAAGEDWDLDQWMSASFGIWREEGYEIVLRVAHESAERARKWRFHPQQMIEQDGEELIVRFHSGGLREIAEHLFTWGGEVRIEGPEELREMMRERLSAAGRAVV	not soluble
MKSRIPVVLLACGSFNPITNMHLRMFEVARDHLHQTGMYQVIQGIISPVNDTYGKKDLAASHHRVAMARLALQTSDWIRVDPWESEQAQWMETVKVLRHHHSKLLRSPPQMEGPDHGKALFSTPAAVPELKLLCGADVLKTFQTPNLWKDAHIQEIVEKFGLVCVGRVSHDPKGYIAESPILRMHQHNIHLAKEPVQNEISATYIRRALGQGQSVKYLIPDAVITYIKDHGLYTKGSTWKGKSTQSTEGKTS	soluble
MEKQLKAMSVSDKPAAPAAQKLGTAPLAAKKTRNEEWGTKVNIDTNIRKLTIKPNQPIYKYAVQVNYVFRKPDGTEATIEMSKSAKKGTEHDNDKTRCQNVYNEAIKRYDELKTGGPFFYDRQASLYTLTKLKNESISFVVTDKICKRQNFKEAQFVLKKVDQSFQSTSNDVIKTTNSCPANADKTLLEAMNIIVSGPAFENKNVITVGACVHYLIDPTGVDVAYKEYPEGQLYSGVGVSKSVKTLEGTDKKVPSLFMTTEMKTTLFHPDYAPLVELLQTFRGFSTTLKANSPAAQRIEKAFVGLDVVLNYGVHKGLGEDGVVMKIRRFHTSAKETCFEVEKSTREFTNVFDYFKKKYGITLKYPDLFTIEAKGKQGKIHFPAEVLLLCPNQTVTNDQMINNEQADMIKMSAAQPHIRKTTTDTIVRNVGLASNNIYGFIKVEDPVNLEGMVLPKPKIAFAGNRLADLANPKSRFPTDFNRAGQYYDAKELTKWELVFVQNEEVQGLAKQLADEMVNNGMKCSNPTMSFIIRGDLEPIFKKAKAAGTQLLFFVVKSRYNYHQQIKALEQKYDVLTQEIRAETAEKVFRQPQTRLNIINKTNMKLGGLNYAIGSEAFNKPNRLIVGFVTSQRVGGNPDYPISVGFAANMLKHHQKFAGGYVYVHRDRDVFGSIIKDTLLTIFKTCTEQRGRPDDILLYFNGVSEGQFSMINEEFSARVKEACMAFQKEGTPPFRPHITIIASSKAHNERLYKSDKGRIVNLEPGTVVDHTIVSNVYTEWYHASAVARQGTAKATKFTLIFTTKAGPQAEPLWHLEQLTNDLCYDHQIVFHPVGLPVPLYIADRYSQRGAMVLAANQGPIYNEGQIDLAATNSAYGYGEKKLFTTRFNA	not soluble
MSAVFGAKYTLRFGHVLAPGEPYHQAFLKWAKAVEEKTNGDVRIEVFPSSQLGVEEDIIEQIRMGAPVGWNTDSARLGMYVKDIGVMNLAYFIDFMGAKTPEEAIEVLKKIKQSPTMQKWLKELEQRFGIKVLSFYWVQGYRHFVTNKPIRKPEDLNGLRIRTPGAPAWQESIRSLGAIPVAVNFGEIYTAVQTRAVDGAELTYANVYNGGLYEVLKYMSETGHFLLINFEIVSADWFNSLPKEYQKIIEEEMDKAGIEVSLKIMKELEEEYKQKCIEKGMAVIPASEIDKEAFMEKAKQAYKNLGLENALNQLIKEVKGEHHHHHH	soluble
MSLYSNESAIQLISLARSIDQLQKIDSVVSFHDGAQLDALTIANALELPFSLSMGAIVNTRDKQLSRRILREKNLTEVQSAIAENEQDLHDFFKIYPQVNKVIVKPVAGTGSENVRSLESKELETANLDNVYPVLVEQFVEGREFSVEAFMQEGKCHIFAITEKFKDAQSFIETGHLVPARLSSDEHEKIAAFIAKVLPALGVVSGITHSEIMLGEKIELIETHTRVGGDRIFDLVQMTTGIDMYRLQALQSLGLPIGEDELTPKLNGKHACIKFKLNDHPGKKVIRVNGEEEIKNWSGVEDVSITHQAGEVLPQIVNSFDRSASVLVLCDSSEQALSIAEEAIQKLEFVVGEGHHHHHH	not soluble
EGQEKFKDLTYIAASVCNTEHAFITLLNKDNLVFLSSFKPPLAEITRDLSFCEITIQSDTVHEVQDARVHERFSNNPYVIGEPYLRYYCGAPLIDENGYKLGALCVLDTNPRTLTENQKKSLVLLAKQV	not soluble
MVSYKLTYFDGRGAGELCRQIFAAAEQKYEDNRLTDEEWEKFKAAGKTPYNQLPMLEVDGKPLAQSHAMARYLAREFGFNGKSRWEEAQVNSLADQYKDYYAEARPYLAVKLGYTEGDAEALYTSVYLPVFKKHYGFFVNALKASGSGFLVGNSLTFIDLLVAQHSADLLGREKSDLFNDVPEMKAHSEKVQSIPQIKKWIETRPASDW	not soluble
MKLSTSLEMPFRESTDPICSVCNFSSLIAPHFGGLVCSACASFFRRTVALNIHYLCKKDNQCKGMRKNCRACRFESCVKIAGMKRSLVKERKNLNNIPLYILNRRNETGNQGVVRAFVSSNQNRLENRLSLSPLTELPINDEMDVSKILKTTPSSLLKYYVEQVSHGKQFYMNTLNIRTKEELFEIVSYQSKVAAETCRTCPGVDLLDNRDILILRKYFQFSNIWIESTWKYWFSNDFSNDTEKFDIKLMEFIGQVKSTLLISLSRLKFNIFEFTAFKAICIWKLVYHETSRAMKIVAQEHYEGVTKALISYYQTYTLLDSMEIAIRVGEITLLVSSVFQMYHDMAKLYLHMGLPF	not soluble

Source: the DeepSol protein solubility set
